From article PMC5041073

Target: Dbf4(5)Rad53 chimera (Dbf4-SGASG-Rad53) (S. cerevisiae) (UniProt P32325)
Experiment: AUC; sedimentation velocity, 50,000 rpm, 20 °C, 2 to 310 μM, 0.2 M NaCl, 0.02 M TRIS-HCl pH 8.0, 1.4 mM 2-mercaptoethanol, 5% v/v glycerol; weighted-average s isotherm fitted to a reversible monomer-dimer equilibrium; dimer to monomers

- Kd: 130 µM
- stoichiometry N: 2
Substance: Dbf4(5)Rad53 chimera (Dbf4-SGASG-Rad53) (from UniProt P32325 105-220; P22216 22-162)
